Source: patent US20240043495A1, “DSG2 COMPOSITIONS AND METHODS FOR THE TREATMENT OF COVID-19” (priority 2020, published 2024)

Assays:
[1] = Dynamic light scattering (DLS) of DSG2 fusion polypeptides; format: physicochemical; conditions: for PDI: polymer distribution index
Text: 6 candidates were compared to the reference sample.

[2] = Melting temperature Tm of DSG2 fusion polypeptides; format: physicochemical
Text: As the temperature increased, the aggregates began to move, unfold and spread apart.

anti-DSG2 antibody [3] = assay: Anti-DSG2 antibody Meso Scale Discovery (MSD) blocking assay, anti-DSG2 antibody controls; format: binding; conditions: for ability to bind to and block anti-DSG2 antibody: MSD assay; for % inhibition: fraction C
Experimental: (§1) The DSG2 fusion polypeptides were tested for the ability to block anti-DSG2 antibody by an anti-DSG2 antibody Meso Scale Discovery (MSD) assay. […] The DSG2 fusion polypeptides were subjected to size exclusion chromatography and different elution fractions were examined. […] As shown in Table 9 and FIG. 4B, FIG. 4C, and FIG. 4D, enriching for fraction C improved the ability of the DSG2 fusion polypeptides to block ARVC patient serum.

Anti-DSG2 antibody [4] = assay: anti-DSG2 antibody MSD assay; fraction C; inhibition of the signal of anti-DSG2 antibody at 200 ng/mL (control)
Anti-DSG2 antibody [5] = assay: anti-DSG2 antibody MSD assay; fraction C; inhibition of the signal of anti-DSG2 antibody at 1000 ng/mL (control)
Anti-DSG2 antibody [6] = assay: electrochemical immunoassay; blocking of anti-DSG2 antibodies (500 ng/mL) binding to DSG2 extracellular domain; fusion polypeptide 5 mg/mL as printed
[7] = tested on: ARVC serum (serum obtained from ARVC patients); assay: Anti-DSG2 antibody Meso Scale Discovery (MSD) blocking assay, ARVC serum; format: binding, human; conditions: for % inhibition: fraction C; for effect of enriching for fraction C on ability to block ARVC patient serum: size exclusion fraction C vs whole preparation, FIG. 4B-4D
Experimental: as §1

[8] = sample: Anti-DSG2 antibody (200 ng/mL) control
[9] = sample: Anti-DSG2 antibody (1000 ng/mL) control

DSG2FP#5: amino acids 104-330 of IgG1 (L234A, L235A, P329G; SEQ ID NO: 31); DSG2 extracellular domain (50-609 of SEQ ID NO: 1)
Peak 1 mass % [1]: ~99% | Peak 1 mode diameter [1]: 76.72 nm | PDI [1]: 0.31 | Tm1 [2]: 65.0 °C | ability to bind to and block anti-DSG2 antibody (anti-DSG2 antibody [3]): able to bind to and block anti-DSG2 antibodies

DSG2-(IgG1)Fc (Fc fusion)
% inhibition (Anti-DSG2 antibody [4]): 54.5% | % inhibition (Anti-DSG2 antibody [5]): 81.6%

DSG2FP#7: DSG2 extracellular domain (50-609 of SEQ ID NO: 1); GGGGS peptide linker; IgG4 Fc (S228P, L235E, P329G) (SEQ ID NO: 32)
Peak 1 mass % [1]: ~97% | Peak 1 mode diameter [1]: 86.23 nm | PDI [1]: 0.30 | Tm1 [2]: 53.4 °C | Tm2 [2]: 60.0 °C | ability to bind to and block anti-DSG2 antibody (anti-DSG2 antibody [3]): able to bind to and block anti-DSG2 antibodies

DSG2-GGGGS-(IgG1)Fc (Fc fusion)
% inhibition (Anti-DSG2 antibody [4]): 61.2% | % inhibition (Anti-DSG2 antibody [5]): 85.5%

DSG2-(IgG4)Fc (Fc fusion)
% inhibition (Anti-DSG2 antibody [6]): > 80%

DSG2FP#6: DSG2 extracellular domain (50-609 of SEQ ID NO: 1); amino acids 99-327 of IgG4 (S228P, L235E, P329G) (SEQ ID NO: 32)
Peak 1 mass % [1]: ~99% | Peak 1 mode diameter [1]: 98.03 nm | PDI [1]: 0.32 | Tm1 [2]: 51.1 °C | Tm2 [2]: 60.0 °C | ability to bind to and block anti-DSG2 antibody (anti-DSG2 antibody [3]): able to bind to and block anti-DSG2 antibodies

DSG2-GGGGS-(IgG4)Fc (Fc fusion)
% inhibition (Anti-DSG2 antibody [6]): > 80%

DSG2-EAAAK-(IgG1)Fc (Fc fusion)
% inhibition (Anti-DSG2 antibody [4]): 61.2% | % inhibition (Anti-DSG2 antibody [5]): 85.5%

B1: DSG2FP#2: DSG2 extracellular domain (amino acids 50-609 of SEQ ID NO: 1); amino acids 104-330 of IgG1 (L234A, L235A, P329G) (SEQ ID NO: 31) (protein)
chain: AWITAPVALREGEDLSKKNPIAKIHSDLAEERGLKITYKYTGKGITEPPFGIFVFNKDTGELNVTSILDREETPFFLLTGYALDARGNNVEKPLELRIKVLDINDNEPVFTQDVFVGSVEELSAAHTLVMKINATDADEPNTLNSKISYRIVSLEPAYPPVFYLNKDTGEIYTTSVTLDREEHSSYTLTVEARDGNGEVTDKPVKQAQVQIRILDVNDNIPVVENKVLEGMVEENQVNVEVTRIKVFDADEIGSDNWLANFTFASGNEGGYFHIETDAQTNEGIVTLIKEVDYEEMKNLDFSVIVANKAAFHKSIRSKYKPTPIPIKVKVKNVKEGIHFKSSVISIYVSESMDRSSKGQIIGNFQAFDEDTGLPAHARYVKLEDRDNWISVDSVTSEIKLAKLPDFESRYVQNGTYTVKIVAISEDYPRKTITGTVLINVEDINDNCPTLIEPVQTICHDAEYVNVTAEDLDGHPNSGPFSFSVIDKPPGMAEKWKIARQESTSVLLQQSEKKLGRSEIQFLISDNQGFSCPEKQVLTLTVCECLHGSGCREAQHDSYVGDKTHTCPPCPAPEAAGGPSVFLFPPKPKDTLMISRTPEVTCVVVDVSHEDPEVKFNWYVDGVEVHNAKTKPREEQYNSTYRVVSVLTVLHQDWLNGKEYKCKVSNKALGAPIEKTISKAKGQPREPQVYTLPPSRDELTKNQVSLTCLVKGFYPSDIAVEWESNGQPENNYKTTPPVLDSDGSFFLYSKLTVDKSRWQQGNVFSCSVMHEALHNHYTQKSLSLSPGK
Peak 1 mass % [1]: ~96% | Peak 1 mode diameter [1]: 40.04 nm | PDI [1]: 0.32 | Tm1 [2]: 52.0 °C | Tm2 [2]: 61.9 °C | Tm3 [2]: 81.9 °C | ability to bind to and block anti-DSG2 antibody (anti-DSG2 antibody [3]): able to bind to and block anti-DSG2 antibodies | % inhibition (anti-DSG2 antibody [3]; [8]): 54.5% | % inhibition (anti-DSG2 antibody [3]; [9]): 81.6% | % inhibition (anti-DSG2 antibody [3]; sample: no antibody control): −19.1% | % inhibition ([7]; sample: ARVC serum 1): 3.0% | % inhibition ([7]; sample: ARVC serum 2): 33.5% | % inhibition ([7]; sample: ARVC serum 3): 26.0% | % inhibition ([7]; sample: ARVC serum 4): 51.1% | % inhibition ([7]; sample: ARVC serum 5): 41.8% | effect of enriching for fraction C on ability to block ARVC patient serum [7]: more pronounced

B2: DSG2FP#3: DSG2 extracellular domain (50-609 of SEQ ID NO: 1); linker GGGGS; amino acids 104-330 of IgG1 (L234A, L235A, P329G) (protein)
chain: AWITAPVALREGEDLSKKNPIAKIHSDLAEERGLKITYKYTGKGITEPPFGIFVFNKDTGELNVTSILDREETPFFLLTGYALDARGNNVEKPLELRIKVLDINDNEPVFTQDVFVGSVEELSAAHTLVMKINATDADEPNTLNSKISYRIVSLEPAYPPVFYLNKDTGEIYTTSVTLDREEHSSYTLTVEARDGNGEVTDKPVKQAQVQIRILDVNDNIPVVENKVLEGMVEENQVNVEVTRIKVFDADEIGSDNWLANFTFASGNEGGYFHIETDAQTNEGIVTLIKEVDYEEMKNLDFSVIVANKAAFHKSIRSKYKPTPIPIKVKVKNVKEGIHFKSSVISIYVSESMDRSSKGQIIGNFQAFDEDTGLPAHARYVKLEDRDNWISVDSVTSEIKLAKLPDFESRYVQNGTYTVKIVAISEDYPRKTITGTVLINVEDINDNCPTLIEPVQTICHDAEYVNVTAEDLDGHPNSGPFSFSVIDKPPGMAEKWKIARQESTSVLLQQSEKKLGRSEIQFLISDNQGFSCPEKQVLTLTVCECLHGSGCREAQHDSYVGGGGGGSDKTHTCPPCPAPEAAGGPSVFLFPPKPKDTLMISRTPEVTCVVVDVSHEDPEVKFNWYVDGVEVHNAKTKPREEQYNSTYRVVSVLTVLHQDWLNGKEYKCKVSNKALGAPIEKTISKAKGQPREPQVYTLPPSRDELTKNQVSLTCLVKGFYPSDIAVEWESNGQPENNYKTTPPVLDSDGSFFLYSKLTVDKSRWQQGNVFSCSVMHEALHNHYTQKSLSLSPGK
Peak 1 mass % [1]: ~91% | Peak 1 mode diameter [1]: 43.23 nm | PDI [1]: 0.30 | Tm1 [2]: 51.3 °C | Tm2 [2]: 62.8 °C | Tm3 [2]: 82.1 °C | ability to bind to and block anti-DSG2 antibody (anti-DSG2 antibody [3]): able to bind to and block anti-DSG2 antibodies | % inhibition (anti-DSG2 antibody [3]; [8]): 61.2% | % inhibition (anti-DSG2 antibody [3]; [9]): 85.5% | % inhibition (anti-DSG2 antibody [3]; sample: no antibody control): 0.7% | % inhibition ([7]; sample: ARVC serum 1): 9.2% | % inhibition ([7]; sample: ARVC serum 2): 27.6% | % inhibition ([7]; sample: ARVC serum 3): 15.5% | % inhibition ([7]; sample: ARVC serum 4): −5.6% | % inhibition ([7]; sample: ARVC serum 5): 20.6% | effect of enriching for fraction C on ability to block ARVC patient serum [7]: more pronounced

B3: DSG2FP#4: DSG2 extracellular domain (50-609 of SEQ ID NO: 1); linker EAAAK; amino acids 104-330 of IgG1 (L234A, L235A, P329G) (protein)
chain: AWITAPVALREGEDLSKKNPIAKIHSDLAEERGLKITYKYTGKGITEPPFGIFVFNKDTGELNVTSILDREETPFFLLTGYALDARGNNVEKPLELRIKVLDINDNEPVFTQDVFVGSVEELSAAHTLVMKINATDADEPNTLNSKISYRIVSLEPAYPPVFYLNKDTGEIYTTSVTLDREEHSSYTLTVEARDGNGEVTDKPVKQAQVQIRILDVNDNIPVVENKVLEGMVEENQVNVEVTRIKVFDADEIGSDNWLANFTFASGNEGGYFHIETDAQTNEGIVTLIKEVDYEEMKNLDFSVIVANKAAFHKSIRSKYKPTPIPIKVKVKNVKEGIHFKSSVISIYVSESMDRSSKGQIIGNFQAFDEDTGLPAHARYVKLEDRDNWISVDSVTSEIKLAKLPDFESRYVQNGTYTVKIVAISEDYPRKTITGTVLINVEDINDNCPTLIEPVQTICHDAEYVNVTAEDLDGHPNSGPFSFSVIDKPPGMAEKWKIARQESTSVLLQQSEKKLGRSEIQFLISDNQGFSCPEKQVLTLTVCECLHGSGCREAQHDSYVGEAAAKDKTHTCPPCPAPEAAGGPSVFLFPPKPKDTLMISRTPEVTCVVVDVSHEDPEVKFNWYVDGVEVHNAKTKPREEQYNSTYRVVSVLTVLHQDWLNGKEYKCKVSNKALGAPIEKTISKAKGQPREPQVYTLPPSRDELTKNQVSLTCLVKGFYPSDIAVEWESNGQPENNYKTTPPVLDSDGSFFLYSKLTVDKSRWQQGNVFSCSVMHEALHNHYTQKSLSLSPGK
Peak 1 mass % [1]: ~96% | Peak 1 mode diameter [1]: 44.87 nm | PDI [1]: 0.32 | Tm1 [2]: 50.7 °C | Tm2 [2]: 63.1 °C | Tm3 [2]: 81.5 °C | ability to bind to and block anti-DSG2 antibody (anti-DSG2 antibody [3]): able to bind to and block anti-DSG2 antibodies | % inhibition (anti-DSG2 antibody [3]; [8]): 61.2% | % inhibition (anti-DSG2 antibody [3]; [9]): 85.5% | % inhibition (anti-DSG2 antibody [3]; sample: no antibody control): 0.7% | % inhibition ([7]; sample: ARVC serum 1): 6.0% | % inhibition ([7]; sample: ARVC serum 2): 9.2% | % inhibition ([7]; sample: ARVC serum 3): −8.0% | % inhibition ([7]; sample: ARVC serum 4): 0.8% | % inhibition ([7]; sample: ARVC serum 5): 2.0%
